Source: article PMC4738331, “A molecular mechanism realizing sequence-specific recognition of nucleic acids by TDP-43”

B1: Fl-(AC)4 ssDNA (ssDNA)
DNA: ACACACAC
B2: Fl-(TG)4 ssDNA (ssDNA)
DNA: TGTGTGTG
B3: T30 (ssDNA)
DNA: TTTTTTTTTTTTTTTTTTTTTTTTTTTTTT
B4: T12 (ssDNA)
DNA: TTTTTTTTTTTT
B5: Fl-(UG)4 RNA (ssRNA)
RNA: UGUGUGUG
B6: Fl-(UG)4 ssDNA (ssDNA)
DNA: UGUGUGUG
modifications: DNA with T replaced by U

Tests used:
TDP-43 RRM2 [1] = biological target: T1, TDP-43 RRM2 (UniProt Q13148 186-267); assay: fluorescence anisotropy; Anisotropy: 50 mM Tris, 100 mM NaCl, pH 8.0, 10 C, 0.1 uM probe, 0-30 uM protein (RNasin for RNA); pull-down: same buffer on Ni resin, room temperature, 1 h, eluted with 1 M NaCl; details: protein: recombinant; tags: N-term His6 + thrombin site + GSSGSSG linker; His removed by thrombin for anisotropy, kept for pull-down; label: 5'-fluorescein
T1 sequence (Q13148 186-267): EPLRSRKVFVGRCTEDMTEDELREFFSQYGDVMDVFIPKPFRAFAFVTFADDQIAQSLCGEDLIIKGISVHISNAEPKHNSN

TDP-43 RRM1 [2] = biological target: T2, TDP-43 RRM1 (UniProt Q13148 96-185); assay: as above; details: protein: recombinant; tags: N-term His6 + thrombin site + GSSGSSG linker; His removed by thrombin for anisotropy, kept for pull-down; label: 5'-fluorescein
T2 sequence (Q13148 96-185): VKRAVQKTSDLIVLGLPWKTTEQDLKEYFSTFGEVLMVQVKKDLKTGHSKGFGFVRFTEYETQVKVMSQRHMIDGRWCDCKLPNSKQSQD

TDP-43 RRM1-2 [3] = biological target: T3, TDP-43 RRM1-2 (UniProt Q13148 96-267); assay: as above; details: protein: recombinant; tags: N-term His6 + thrombin site + GSSGSSG linker; His removed by thrombin for anisotropy, kept for pull-down; label: 5'-fluorescein
T3 sequence (Q13148 96-267): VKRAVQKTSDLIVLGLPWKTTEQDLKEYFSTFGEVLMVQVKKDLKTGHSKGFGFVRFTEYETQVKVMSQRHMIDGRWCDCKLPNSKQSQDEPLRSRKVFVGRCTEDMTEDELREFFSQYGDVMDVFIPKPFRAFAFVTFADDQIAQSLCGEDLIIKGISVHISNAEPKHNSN

TDP-43 RRM2 [4] = biological target: T1, TDP-43 RRM2; assay: pull-down; Anisotropy: 50 mM Tris, 100 mM NaCl, pH 8.0, 10 C, 0.1 uM probe, 0-30 uM protein (RNasin for RNA); pull-down: same buffer on Ni resin, room temperature, 1 h, eluted with 1 M NaCl; details: protein: recombinant; tags: N-term His6 + thrombin site + GSSGSSG linker; His removed by thrombin for anisotropy, kept for pull-down
TDP-43 RRM1 [5] = biological target: T2, TDP-43 RRM1; assay: as above; details: protein: recombinant; tags: N-term His6 + thrombin site + GSSGSSG linker; His removed by thrombin for anisotropy, kept for pull-down
TDP-43 RRM1-2 [6] = biological target: T3, TDP-43 RRM1-2; assay: as above; details: protein: recombinant; tags: N-term His6 + thrombin site + GSSGSSG linker; His removed by thrombin for anisotropy, kept for pull-down
TDP-43 RRM2 [7] = biological target: T1, TDP-43 RRM2; assay: fluorescence anisotropy; RNasin; Anisotropy: 50 mM Tris, 100 mM NaCl, pH 8.0, 10 C, 0.1 uM probe, 0-30 uM protein (RNasin for RNA); pull-down: same buffer on Ni resin, room temperature, 1 h, eluted with 1 M NaCl; details: protein: recombinant; tags: N-term His6 + thrombin site + GSSGSSG linker; His removed by thrombin for anisotropy, kept for pull-down; label: 5'-fluorescein
TDP-43 RRM1 [8] = biological target: T2, TDP-43 RRM1; assay: as above; details: protein: recombinant; tags: N-term His6 + thrombin site + GSSGSSG linker; His removed by thrombin for anisotropy, kept for pull-down; label: 5'-fluorescein
TDP-43 RRM1-2 [9] = biological target: T3, TDP-43 RRM1-2; assay: as above; details: protein: recombinant; tags: N-term His6 + thrombin site + GSSGSSG linker; His removed by thrombin for anisotropy, kept for pull-down; label: 5'-fluorescein

Row | Binder | binding result (TDP-43 RRM2 [1]) | Kd (TDP-43 RRM1 [2]) [nM] | Kd (TDP-43 RRM1-2 [3]) [nM] | binding result (TDP-43 RRM2 [4]) | binding result (TDP-43 RRM1 [5]) | binding result (TDP-43 RRM1-2 [6]) | other results
1 | B1 | no binding | – | – | – | – | – | binding result (TDP-43 RRM1 [2]): no binding; binding result (TDP-43 RRM1-2 [3]): no binding
2 | B2 | no binding | 52 ± 12 | 77 ± 4.2 | – | – | – | –
3 | B3 | – | – | – | no binding | binds | binds | –
4 | B4 | – | – | – | no binding | binds | binds | –
5 | B5 | – | – | – | – | – | – | binding result (TDP-43 RRM2 [7]): no binding; Kd (TDP-43 RRM1 [8]): 28 ± 9 nM; Kd (TDP-43 RRM1-2 [9]): 3.5 ± 2.3 nM
6 | B6 | no binding | 61 ± 30 | 150 ± 23 | – | – | – | –
